From PMC8217502

How the values were obtained:
[1] = target: F1FO-ATP synthase (complex V) (P. falciparum); experiment: native gel or EMSA; complexome profiling after method 3 only (nitrogen cavitation without saponin, larger amounts of parasites; samples ABS3D and GCT3D), digitonin, BN-PAGE 4-16%, stacking gel also analysed
[2] = target: F1FO-ATP synthase (complex V) (P. falciparum); experiment: native gel or EMSA; high molecular mass (HMM) complexome profiles: GCT3D experiment repeated on a 3-16% BN gel, only the top part of the gel (Mr app. >1000 kDa) analysed; gametocytes, digitonin
[3] = target: cytochrome bc1 complex (CIII) (P. falciparum) (UniProt Q7HP03); experiment: native gel or EMSA; complexome profiling: mitochondria-enriched fractions of mixed ABS parasites or stage V gametocytes (enrichment methods 1-3), solubilised with digitonin or DDM, BN-PAGE on 4-16% gradient gels, gel slices analysed by LC-MS/MS; comigration of iBAQ migration profiles

| stoichiometry N [1] | stoichiometry N [2] | stoichiometry N [3] | Substance |
| --- | --- | --- | --- |
| 2 | 2 |  | F1FO-ATP synthase (complex V) |
|  |  | 2 | cytochrome bc1 complex (CIII), Q7HP03 1-376; Q8I6U9 1-394; Q8IL75 1-355; Q8ILJ5 1-88; Q8IJS2 1-192; Q9NLB3 1-137; C0H4H6 1-96; Q8I2I2 1-484; Q8I3N3 1-534; Q8IBM6 1-79; A0A5K1K9E9 1-163; Q8IB13 1-54 |
